# Molecular target: HCoV-OC43 N WT (Human coronavirus OC43, UniProt P33469 1-448)
# Assay: SPR
# Sequence of HCoV-OC43 N WT (P33469 whole entry): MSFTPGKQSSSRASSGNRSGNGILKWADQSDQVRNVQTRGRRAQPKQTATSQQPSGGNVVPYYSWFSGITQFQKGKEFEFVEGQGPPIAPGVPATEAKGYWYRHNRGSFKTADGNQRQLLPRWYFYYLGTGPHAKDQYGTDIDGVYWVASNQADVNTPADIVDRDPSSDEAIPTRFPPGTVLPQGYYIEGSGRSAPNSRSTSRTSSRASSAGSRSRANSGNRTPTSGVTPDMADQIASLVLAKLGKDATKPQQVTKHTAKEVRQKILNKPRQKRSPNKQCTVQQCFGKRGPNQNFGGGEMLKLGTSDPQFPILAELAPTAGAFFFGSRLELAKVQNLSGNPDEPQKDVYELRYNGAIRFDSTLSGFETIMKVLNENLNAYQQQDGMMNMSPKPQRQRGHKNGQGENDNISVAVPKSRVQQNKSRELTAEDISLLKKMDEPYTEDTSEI
binder,measurement,value
UCUAAACUCUAAACUCUAAACUCUAAAC (ssRNA) [(UCUAAAC)4 28-mer],Kd,11.7 ± 0.82 nM
